Data: patent US20020090619A1, “Methods for identifying mitochondrial divalent cation transporters” (priority 2000, published 2002)

Legend:
[1] = test system: isolated yeast mitochondria; assay: Ca2+ transport in isolated yeast mitochondria expressing aequorin (luminescence); format: biochemical, Saccharomyces cerevisiae; conditions: 2 μM A23187, medium containing no added Ca^2+, FIG. 22B
Experimental: For preculture, the transformant was inoculated into 50 ml of SC-U plus 2% glucose, and incubated in an air shaker at 180 rpm and 30° C. At 24 hr, the preculture was transferred to 500 ml of a medium containing 1% yeast extract, 2% peptone, 2% lactate, 1% galactose, 0.012% adenine, pH 5 w/NaOH, and growth was continued under conditions which were otherwise the same. Cells were harvested after an additional 24 hr, spheroplasts were prepared using zymolyase, and mitochondria were isolated by the method of Daum et al. (1982) as previously described (Jung et al., 1997). The final pellet was resuspended at ˜20 mg protein/ml in 0.6 M mannitol, 20 mM HEPES (K^+ salt, pH 6.8). Apoaequorin in the intact or disrupted mitochondria was reconstituted by incubation with coelenterazine as described above for cells.
For most experiments, the mitochondria were present at 0.4 mg protein/ml in a standard medium that contained 0.3 M KCl, 20 mM HEPES, (K^+ salt, pH 7.10), 10 mM KH2PO4, 2 mM EGTA, and 2 mM MgCl2. Other additions are described in greater detail below. Ca^2+ buffers were formed by adding various amounts of CaCl2 to this EGTA containing medium. The free Ca^2+ concentrations which resulted were calculated using a computer program (Brooks et al., 1992 Anal. Biochem. 201:119).
Luminescence measurements were carried out in 6×50 mm culture tubes, using a total volume of 0.3 ml, and were started by injection of 5-20 μl of mitochondria or cells. A SAI model 3000 integrating photometer was employed, with AJD sampling at 0.4 seconds intervals driven by Asyst software. Values were transformed into corresponding Ca^2+ concentrations by computer assisted calculations based upon published calibration methods (Allen et al., 1977 Science 195:996; Brini et al., 1995 J. Biol. Chem. 270:9896). For each value, the ratio of observed luminescence (L) to the potential luminescence remaining (Lmax) was calculated, and compared to a calibration curve which relates this ratio to the free Ca^2+ concentration. Thus, complete calibrated progress curves were generated. The total luminescence available initially (Ltotal) must be known and was determined in separate experiments, wherein a saturating Ca^2+ concentration (20 μM) is employed to discharge the aequorin completely. This value allows Lmax to be calculated at any time, as Ltotal minus the sum of luminescence that already occurred.
The calibration data were obtained at an ionic strength of 335 mM and in the presence of 1 mM Mg^2+, to mimic conditions in the mitochondrial matrix, because both factors influence the affinity of aequorin for Ca2+ (Cobbold et al., 1987 Biochem. J. 248:313). Luminescence values were corrected for low background values that are obtained when Ca^2+ is absent before conducting further calculations.

intact yeast = assay: Aequorin luminescence in intact yeast cells expressing mitochondrially targeted aequorin; format: cell-based, Saccharomyces cerevisiae; conditions: intact cells
Experimental: Yeast cells (strain X4003-5B; leu2, ade1, his4, met2, ura3, trp5, gal1) obtained from the Yeast Genetic Stock Center (Berkeley, Calif.) were transformed with the pYES2 plasmid, encoding the human mitochondrially targeted apoaequorin fragment, using the lithium acetate method (Sambrook et al., 1989), and INVSc1 cells were transformed with the pGK plasmid encoding the yeast mitochondrially targeted apoaequorin fragment. Selection was carried out on plates prepared with synthetic complete medium minus uracil (SC-U) (Sherman, 1991 Meths. Enzymol. 194:3). Transformed colonies were cultured in a small volume of SC-U and assayed for aequorin activity in vitro as described by Nakajima et al. (1991 Proc. Nat. Acad. Sci. USA 88:6878). Briefly, the cells were harvested by centrifugation, resuspended in lysis buffer (50 mM Tris, 2 mM EDTA, 0.5 mM PMSF, pH 8 w/NaOH), disrupted by vortexing with glass beads, and then treated with 0.1% Triton X-100 to release apoaequorin from the mitochondria. Following centrifugation, 200 μl aliquots of the supernatants were incubated with coelenterazine (2.5 μM) and 2-mercaptoethanol (2 μl), for ˜3 hr while standing on ice, to form the luminescent aequorin from its apoprotein. The coelenterazine cofactor is highly hydrophobic and readily permeates yeast cell membranes (Nakajima et al., 1991) such that reconstitution was conducted without disrupting the cells in some cases. 2-mercaptoethanol was omitted when intact cells were employed. A transformant which yielded high luminescence (named X4003-5B-AEQmito1) was selected for further characterization.
For preculture, the transformant was inoculated into 50 ml of SC-U plus 2% glucose, and incubated in an air shaker at 180 rpm and 30° C. At 24 hr, the preculture was transferred to 500 ml of a medium containing 1% yeast extract, 2% peptone, 2% lactate, 1% galactose, 0.012% adenine, pH 5 w/NaOH, and growth was continued under conditions which were otherwise the same. […]
Luminescence measurements were carried out in 6×50 mm culture tubes, using a total volume of 0.3 ml, and were started by injection of 5-20 μl of mitochondria or cells. […] For each value, the ratio of observed luminescence (L) to the potential luminescence remaining (Lmax) was calculated, and compared to a calibration curve which relates this ratio to the free Ca^2+ concentration. […] The total luminescence available initially (Ltotal) must be known and was determined in separate experiments, wherein a saturating Ca^2+ concentration (20 μM) is employed to discharge the aequorin completely. This value allows Lmax to be calculated at any time, as Ltotal minus the sum of luminescence that already occurred. […]

[2] = Yuchi et al., 1993; cited from earlier work
[3] = Esterase cleavage of divalent cation-sensitive indicator molecule precursors (fluorescence); format: biochemical; conditions: precursor 1 μg/ml, sonicated E. coli expressing the esterase
Text: Standard molecular biology procedures were used (Sambrook et al., 1989 Molecular Cloning: A Laboratory Manual, Cold Spring Harbor Laboratory Press, Cold Spring Harbor, N.Y.). All reagents were from Sigma (St. Louis, Mo.) unless otherwise indicated. E. coli cells expressing esterases from several sources: B. subtilis para-nitrobenzyl esterase from plasmid PNB106R (Zock et al., 1994) (SEQ ID NO:1; SEQ ID NO:7); Acinetobacter areA expressed in E. coli strain BL21(DE3) (SEQ ID NO:2; from plasmid pADPW40, Jones et al. 1999 J. Bacteriol. 181:4568, obtained from Drs. R. Jones and P. Williams, Univeristy of Wales Bangor, UK); Acinetobacter SalE expressed in E. coli strain BL21(DE3) (SEQ ID NO:3; from plasmid pADPW70, Jones et al. 2000 J. Bacteriol. 1832:2018, also obtained from Drs. R. Jones and P. Williams, Univeristy of Wales Bangor, UK) were grown in 10 mL of standard LB media plus ampicillin (100 μg/ml) at 37° C. Tetracycline (10 μg/ml) was present instead of ampicillin for the cells expressing B. subtilis para-nitrobenzyl esterase. For strains expressing all proteins except para-nitrobenzyle esterase, the cells were grown to an OD (λ=600 nm) of 0.6 and protein expression was induced by administration of […] IPTG for 4 hours until the culture reached an OD600 of ˜1.0. Cells expressing para-nitrobenzylesterase were grown at 30° C. and protein expression was induced by a temperature shift to 40° C. for 6 hours. The cells attained an OD600 of ˜1.0. Cells were washed, pelleted by centrifugation, and then resuspended in 0.5 ml of cold 0.12 M Tris Cl, pH 8.0. Cells were sonicated for ten seconds and then incubated on ice for ten seconds. This sonication step was repeated eight times.
For fluorescence measurements, a volume of 50 μl of the sonicated cell suspension was placed in 3.0 ml of 0.1 M KCl, 50 uM EGTA, 20 mM HEPES pH 7.40. As a divalent cation-sensitive indicator molecule, one of the following compounds (all from Molecular Probes, Inc., Eugene, Oreg.) was present at a final concentration of 1 μg/ml: BCECF AM (BCECF (2′,7′-bis-(2-carboxyethyl)-5-(and-6)-carboxyfluorescein), a proton indicator used as an esterase-cleavable control), Rhod-2 AM, Fluo-3 AM, Indo-1 AM, or Fura-2 AM. To monitor detection of divalent cation using the divalent cation-sensitive indicator molecules generated by esterase cleavage of the precursor forms, each reaction was made 2 mM CaCl2 The wavelengths used for the indicator dyes were as follows: Fluo-3, excitation 488 nm, emission 520 nm; Rhod-2, excitation 540 nm, emission 580 nm; Indo-1 AM, excitation 338 nm, emission scan […]; Fura-2, excitation scan 250-450 nm, emission 510 nm; BCECF, excitation 440 nm, emission 550 nm.

| Molecule | hydrolysis of indicator precursors (AM esters) to Ca^2+-sensitive indicator molecules [3] | other results |
| --- | --- | --- |
| CNc1ccc2oc(C[C@H]3O[C@@]4(CC[C@H]3C)O[C@H]([C@H](C)C(=O)c3ccc[nH]3)[C@H](C)C[C@H]4C)nc2c1C(=O)O [A23187] | – | effect on matrix Ca^2+ concentration [1]: reduced the matrix Ca^2+ concentration below the detection limit; additional luminescence when added after the response to ETH 129 (intact yeast): absence of any additional luminescence |
| COc1cc(N(CC(=O)O)CC(=O)O)c2nc(COc3cc(C)ccc3N(CC(=O)O)CC(=O)O)ccc2c1 [Quin-2] | – | pKa^4 [2]: 6.25 |
| areA: Acinetobacter areA esterase expressed in E. coli BL21(DE3) (SEQ ID NO:2) (protein, listed as Acinetobacter sp.) MLQSLDPQLASFFAMLENQGAPAFDIGTLNDPNINEMRNWYLNFGPHVAGQFIELQDVEDLWIQVDDGSLRLRLYKTQRQHSESCETLIYFHGGGWCIGSIETHDLLCRHLVNDLDVNVISVDYRLAPEYPYPQAAHDAIHATQWIFEHASALGIHPDHLYVAGDSAGGNLAAITALTFKEQTYRTSLAGQILIYPCIDLTVIHDNKYPSFEKQKLTPPLSAEQMSKMIQIYLKNEDFAYQWLASPLLAQSHQHLPSTLIITAEFDPLHDQGCVYFEKLKSSLVNTEYHEIKGVVHGFFEMYGVLNKTKETINIIRAWLKNNTKSK | rate of hydrolysis appeared to be significantly slower | – |
| HD-1 esterase: HD-1 esterase from an oil degrading bacterium (SEQ ID NO:4) (protein, Sequence encoding petroleum-degrading bacterium esterase.) MTLDAQAKAILDQIARSPMPKLHQVPASVARQMFEISCKLTEIKNLPIGRVEDRVIPGPDDTELPIRIYTPVAAPPGPLPVLVFFHGGGFVIGSLDSHDAPCRLIANEARCLVVSVDYRLAPENRFPAAVDDCLAAVTWVARNAAEINADPTRIAVGGDSAGGNLSAVVSQQLRDAGGPKIVFQLLIYPATDALHEGLSRTSNAEGYMLDKDLMSWFFAQYLGDGGGVDLADPRFSPLRHANLGNLGTIHVVVAGFDPLRDEGIAYAEALKAAGNKVTLSEFKGQIHGFCSMAGVIEAGRTALVEGAALLKEAFAQA | Slow hydrolyses of Fura-2 AM and Indo-1 AM | – |
| Para-nitrobenzyl esterase: B. subtilis para-nitrobenzyl esterase from plasmid PNB106R (SEQ ID NO:1; SEQ ID NO:7) (protein, listed as Bascillus subtilis) MTHQIVTTQYGKVKGTTENGVHKWKGIPYAKPPVGQWRFKAPEPPEVWEDVLDATAYGPICPQPSDLLSLSYTELPRQSEDCLYVNVFAPDTPSQNLPVMVWIHGGAFYLGAGSEPLYDGSKLAAQGEVIVVTLNYRLGPFGFLHLSSFDEAYSDNLGLLDQAAALKWVRENISAFGGDPDNVTVFGESAGGMSIAALLAMPAAKGLFQKAIMESGASRTMTKEQAASTAAAFLQVLGINESQLDRLHTVAAEDLLKAADQLRIAEKENIFQLFFQPALDPKTLPEEPEKSIAEGAASGIPLLIGTTRDEGYLFFTPDSDVHSQETLDAALEYLLGKPLAEKAADLYPRSLESQIHMMTDLLFWRPAVAYASAQSHYAPVWMYRFDWHPEKPPYNKAFHALELPFVFGNLDGLERMAKAEITDEVKQLSHTIQSAWITFAKTGNPSTEAVNWPAYHEETRETVILDSEITIENDPESEKRQKLFPSKGE | detectably hydrolyzed all divalent cation-sensitive indicator molecule precursors that were tested | – |
| SalE esterase: Acinetobacter SalE esterase expressed in E. coli BL21(DE3) (SEQ ID NO:3) (protein, listed as Acinetobacter sp.) MITYVLVHGSWHDGSLWEPVATHLRAQGHTVHCPTVAGHGPNADRNVTHAQCSQSIADYIVKHDLSEIVLLGHSYGGTIISKVAEAIPERIQRLIYWNAFVLQDGENMFDNMPEAYYELFTSLAAASGDNTVLLPYEVWRHAFINDADDQMAEETYKMLTPEPCQPFHDRLDLKKFYTLNIPKSYLNCTEDQALPAGFWHPKMSNRLGEFKLVEMGGSHEAMFTRPQELATKIIEASHD | no apparent Ca^2+ sensitivity was detected | – |
